Experimental data from US20210269549A1, “ANTI-SAS1B ANTIBODIES, ASSOCIATED METHODS OF USE, AND COMPOSITIONS AND METHODS FOR DETECTING AND TREATING CANCER” (UNIVERSITY OF VIRGINIA PATENT FOUNDATION, priority 2015, published 2021).
Numbering of substitutions follows the chain as printed.

T1: SAS1B extracellular domain (aa 164-431) polypeptide (Homo sapiens, UniProt Q6HA08)
T1 construct: SAS1B extracellular domain (aa 164-431) polypeptide; made in house
T1 sequence (Q6HA08 164-431): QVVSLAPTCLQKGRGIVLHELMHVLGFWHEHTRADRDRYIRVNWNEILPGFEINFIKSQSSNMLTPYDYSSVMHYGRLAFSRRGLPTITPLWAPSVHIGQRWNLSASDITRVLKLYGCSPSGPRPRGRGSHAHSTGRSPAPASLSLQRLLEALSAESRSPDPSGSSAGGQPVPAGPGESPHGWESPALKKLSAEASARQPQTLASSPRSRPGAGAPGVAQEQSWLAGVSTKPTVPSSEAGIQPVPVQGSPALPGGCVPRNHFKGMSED

B1: SB2: mouse anti-human SAS1B monoclonal antibody, IgG2b; VH SEQ ID NO:14, VL SEQ ID NO:15 (antibody, listed as Mus musculus, V domains shown)
VH: EVQLQQSGPELVKPGSSVKISCKASGYTFTDYNMVWVKQSHGKSLEWIGAVNPNNGGTSYNQKFKGKATLTVDKSSSTAYMELRSLTSEDSAVYYCVPNWDWFAYWGQGTLVTVSA
VL: DVLMTQTPLSLPVSLGDQASISCRSSQSLVHSNGNTYLEWYLQKPGQSPNLLIYKVSNRFSGVPDRFSGSGSGTDFTLKISRVEAEDLGVYYCFQGSHVPFTFGSGTKLEIK
B2: SB5: mouse anti-human SAS1B monoclonal antibody, IgG2b; VH SEQ ID NO:16, VL SEQ ID NO:18 (antibody, listed as Mus musculus, V domains shown)
VH: B1 VH with A24P, V37M, V51I, S59T, V97A
VL: B1 VL with T7I, L29I, V30L, N50K
B3: SB3: mouse anti-human SAS1B monoclonal antibody, IgG2b; VH SEQ ID NO:14, VL SEQ ID NO:15 (antibody, listed as Mus musculus, V domains shown)
VH: B1 VH
VL: B1 VL
B4: SB4: mouse anti-human SAS1B monoclonal antibody, IgG2a; VH SEQ ID NO:16, VL SEQ ID NO:17 (antibody, listed as Mus musculus, V domains shown)
VH: B1 VH with A24P, V37M, V51I, S59T, V97A
VL: B1 VL with L29I, V30L, N50K
B5: SB1: mouse anti-SAS1B monoclonal antibody, IgG2a; VH SEQ ID NO:12, VL SEQ ID NO:13 (antibody, listed as Mus musculus, V domains shown)
VH: EVQLQQSGPELVKPGSSVKISCKASGYTFTDYNMDWVKQSHGKSLEWIGAINPNNGGTSYNQKFKGKATLTVDKSSSTAYMELRSLTSEDSAVYYCATNEYWGQGTTLTVSS
VL: NIVMTQSPKSMSMSVGERVTLSCKASENVGTYVSWYQQKPEQSPKLLIYGASNRYTGVPDRFTGSGSATDFTLTISSVQAEDLADYHCGQSYSYPWTFGGGTKLEIK

Biological target: T1, SAS1B extracellular domain (aa 164-431) polypeptide
Experiment: Western blot with mammalian cell-expressed recombinant SAS1B, extracellular domain
Assay type: binding
Settings: not given
Description: SAS1B monoclonal antibodies were analyzed with mammalian cell-expressed recombinant SAS1B by western blotting.

Reaction with SAS1B extracellular domain (aa 164-431) polypeptide	Molecule
none of the them reacted	B1
none of the them reacted	B2
none of the them reacted	B3
none of the them reacted	B4
none of the them reacted	B5

System: MMMT539 (uterine cancer cell line)
Experiment: Live cell surface indirect immunofluorescence, MMMT539
Assay type: cell-based, human
Settings: live cells on ice
Description: Anti-Human SAS1B mouse monoclonal antibodies reactive to SAS1B epitope on live cancer cell surfaces were identified by indirect immuno-fluorescence (IF) for the development of therapeutic antibodies. M1 (renal cancer cell line) and MMMT539 (uterine cancer cell line) cells were seeded at 20,000 cells in 1 ml per well on collagen coated coverslips in 24 well plates. The media was replaced 22 h post seeding. For antibody probing, cells were kept on ice for ˜8 to 18 min following 47 h post-seeding. The first antibody was added at 10 ug/ml, 20 ug/ml or 50 ug/ml in complete culture media with 15 mM NaN3 (pre-chilled), incubated on ice for 60 min, and the cells washed in complete culture media with 15 mM NaN3 in cold 1 ml, ×3. The second antibody, goat-antimouse-AF488 (pre-chilled), was added to the wells at 5 ug/ml in complete culture media with 15 mM NaN3 for 60 min on ice. The cells were washed in complete media with 15 mM NaN3, 1 ml, ×3 on ice. The cells were fixed in 4% PFA in PBS for 20 minutes on ice. The cells were washed in distilled water at RT, 1 ml, ×1 and mounted in 8 ul of SLOWFADE® Diamond Antifade Mountant with DAPI. An anti-EGFR monoclonal antibody was used as a positive control on live M1 cells. Epidermal growth factor receptor (EGFR) is a transmembrane glycoprotein and member of protein kinase superfamily. […] Most of the cells expressed the receptor and validated the live cell surface IF staining methodology for the screening of anti-human SAS1B mouse monoclonal antibodies. The receptor molecule was found on the cell surfaces. Anti-human CABYR monoclonal antibody 3A4 was used as a negative control on live MMMT539 cells. CABYR is a calcium binding cytoskeleton sperm protein with no transmembrane domain.

Molecule	Fluorescence signal on the surface of live uterine tumor cells
B1	clear fluorescence signal
B2	clear fluorescence signal
B3	clear fluorescence signal
B4	clear fluorescence signal
B5	clear fluorescence signal

System: M1 (renal cancer cell line)
Experiment: Live cell surface indirect immunofluorescence, M1
Assay type: cell-based
Settings: live cells on ice; two cancer cell lines (M1, MMMT539)
Description: Anti-Human SAS1B mouse monoclonal antibodies reactive to SAS1B epitope on live cancer cell surfaces were identified by indirect immuno-fluorescence (IF) for the development of therapeutic antibodies. M1 (renal cancer cell line) and MMMT539 (uterine cancer cell line) cells were seeded at 20,000 cells in 1 ml per well on collagen coated coverslips in 24 well plates. The media was replaced 22 h post seeding. For antibody probing, cells were kept on ice for ˜8 to 18 min following 47 h post-seeding. The first antibody was added at 10 ug/ml, 20 ug/ml or 50 ug/ml in complete culture media with 15 mM NaN3 (pre-chilled), incubated on ice for 60 min, and the cells washed in complete culture media with 15 mM NaN3 in cold 1 ml, ×3. The second antibody, goat-antimouse-AF488 (pre-chilled), was added to the wells at 5 ug/ml in complete culture media with 15 mM NaN3 for 60 min on ice. The cells were washed in complete media with 15 mM NaN3, 1 ml, ×3 on ice. The cells were fixed in 4% PFA in PBS for 20 minutes on ice. The cells were washed in distilled water at RT, 1 ml, ×1 and mounted in 8 ul of SLOWFADE® Diamond Antifade Mountant with DAPI. An anti-EGFR monoclonal antibody was used as a positive control on live M1 cells. Epidermal growth factor receptor (EGFR) is a transmembrane glycoprotein and member of protein kinase superfamily. […] Anti-human CABYR monoclonal antibody 3A4 was used as a negative control on live MMMT539 cells. CABYR is a calcium binding cytoskeleton sperm protein with no transmembrane domain.

Molecule	Surface labelling of live cancer cells
B1	labelled the surface
B2	labelled the surface
B3	labelled the surface
B4	labelled the surface
B5	labelled the surface
